Test results reported in patent publication US5777073.
Like-named read-outs stand apart in the source and are kept apart here. One block for each substance: values may come before it.

How the values were obtained:
[1] = target: CRF receptors on rat anterior pituitary cells (rat)
[2] = target: CRF receptors on rat anterior pituitary cells (rat); remark: listed apart in the source
[3] = target: CRF receptors on rat anterior pituitary cells (rat); remark: listed apart in the source
[4] = target: CRF receptors on rat anterior pituitary cells (rat); remark: listed apart in the source
[5] = target: CRF receptors on rat anterior pituitary cells (rat); remark: listed apart in the source
[6] = target: CRF receptors on rat anterior pituitary cells (rat); remark: listed apart in the source
[7] = target: CRF receptors on rat anterior pituitary cells (rat); remark: listed apart in the source
[8] = target: CRF receptors on rat anterior pituitary cells (rat); remark: listed apart in the source
[9] = target: CRF receptors on rat anterior pituitary cells (rat); remark: listed apart in the source
[10] = target: CRF receptors on rat anterior pituitary cells (rat); remark: listed apart in the source
[11] = target: CRF receptors on rat anterior pituitary cells (rat); remark: listed apart in the source
[12] = target: CRF receptors on rat anterior pituitary cells (rat); remark: listed apart in the source
[13] = target: CRF receptors on rat anterior pituitary cells (rat); remark: listed apart in the source
[14] = target: CRF receptors on rat anterior pituitary cells (rat); remark: listed apart in the source
[15] = target: CRF receptors on rat anterior pituitary cells (rat); remark: listed apart in the source
[16] = target: CRF receptors on rat anterior pituitary cells (rat); remark: listed apart in the source
[17] = target: CRF receptors on rat anterior pituitary cells (rat); remark: listed apart in the source
[18] = target: CRF receptors on rat anterior pituitary cells (rat); remark: listed apart in the source
[19] = target: CRF receptors on rat anterior pituitary cells (rat); remark: listed apart in the source
[20] = target: CRF receptors on rat anterior pituitary cells (rat); remark: listed apart in the source
[21] = target: CRF receptors on rat anterior pituitary cells (rat); remark: listed apart in the source
[22] = target: CRF receptors on rat anterior pituitary cells (rat); remark: listed apart in the source
CRF-RA = test: binding assay
[23] = target: CRF receptors on rat anterior pituitary cells (rat); remark: listed apart in the source
hCRF-RA1 (human) = hCRF-RA1 (human) (UniProt P34998); test: radioligand binding assay

Substance: (cyclo 30-33) Ac-Thr^11, D-Phe^12, Nle^21,38, Glu^30, Lys^33 !-r/hCRF(11-41) (peptide)
in vitro biopotency: inhibition of ACTH secretion (times the Standard) [1]: 64

Substance: (cyclo 30-33) D-Phe^12, Nle^18,21, Glu^30, Lys^33 !-Sucker Urotensin I(12-41) (peptide)
in vitro biopotency: inhibition of ACTH secretion (times Peptide IV) [7]: 1.32

Substance: (cyclo 30-33) D-Phe^12, Nle^21,38, CML^27, Glu^30, D-His^32, Lys^33 !-r/hCRF(11-41) (peptide)
in vitro biopotency: inhibition of ACTH secretion (times Peptide IV) [8]: 1.26

Substance: (cyclo 30-33) D-Phe^12, Nle^21,38, Glu^30, D-Glu^32, Lys^33 !-r/hCRF(12-41) (peptide)
in vitro biopotency: inhibition of ACTH secretion (times the Standard) [12]: 10

Substance: (cyclo 30-33) D-Phe^12, Nle^21,38, Glu^30, D-His^32, Lys^33 !-r/hCRF(11-41) (peptide)
in vitro biopotency: inhibition of ACTH secretion (times Peptide IV) [13]: 0.78

Substance: (cyclo 30-33) D-Phe^12, Nle^21,38, Glu^30, D-His^32, Lys^33 !-r/hCRF(12-41) (peptide)
in vitro biopotency: inhibition of ACTH secretion (times the Standard) [14]: 80.3

Substance: (cyclo 30-33) D-Phe^12, Nle^21,38, Glu^30, D-His^32, Lys^33, CML^37 !-r/hCRF(12-41) (peptide)
in vitro biopotency: inhibition of ACTH secretion (times the Standard) [15]: 16

Substance: (cyclo 30-33) D-Phe^12, Nle^21,38, Glu^30, Lys^33 !-r/hCRF(9-41) (peptide)
in vitro biopotency: inhibition of ACTH secretion (times the Standard) [16]: 33.8

Substance: (cyclo 30-33) D-Phe^12, Nle^21,38, Glu^30, Lys^33 !-r/hCRF(10-41) (peptide)
in vitro biopotency: inhibition of ACTH secretion (times the Standard) [17]: 31.6

Substance: (cyclo 30-33) D-Tyr^12, Glu^13, Lys^17,33, Nle^21,38, Glu^30, Asn^32, Arg^36 !-r/hCRF(12-41) (peptide)
in vitro biopotency: inhibition of ACTH secretion (times the Standard) [21]: 49

Substance: (cyclo 30-33) D-Tyr^12, Nle^21,38, Glu^30, Lys^33 !-r/hCRF(12-41) (peptide)
Kd (CRF-RA): 2 nM
in vitro biopotency: inhibition of ACTH secretion (times the Standard) [23]: 5.6

Substance: (cyclo 30-33) I^125 -D-Tyr^12, Glu^30, Lys^33, Nle^21,38 !-r/hCRF(12-41) (peptide)
Kd (hCRF-RA1 (human)): 2 nM

Continued, values first:

in vitro biopotency: inhibition of ACTH secretion (times the Standard) [2]: 15
Substance: (cyclo 30-33) D-Phe^12, CML^14, Nle^21,38, Glu^30, D-His^32, Lys^33 !-r/hCRF(12-41) (peptide)

in vitro biopotency: inhibition of ACTH secretion (times the Standard) [3]: 20.3
Substance: (cyclo 30-33) D-Phe^12, CML^15, Nle^21,38, Glu^30, D-His^32, Lys^33 !-r/hCRF(12-41) (peptide)

in vitro biopotency: inhibition of ACTH secretion (times the Standard) [4]: 23.5
Substance: (cyclo 30-33) D-Phe^12, CML^15, Nle^21,38, Glu^30, imBzlD-His^32, Lys^33 !-r/hCRF (12-41) (peptide)

in vitro biopotency: inhibition of ACTH secretion (times the Standard) [5]: 4.5
Substance: (cyclo 30-33) D-Phe^12, CML^19, Nle^21,38, Glu^30, D-His^32, Lys^33 !-r/hCRF(12-41) (peptide)

in vitro biopotency: inhibition of ACTH secretion (times Peptide IV) [6]: 0.831
Substance: (cyclo 30-33) D-Phe^12, Nle^18,21, Glu^30, D-Ala^32, Lys^33 !-Carp Urotensin I (12-41) (peptide)

in vitro biopotency: inhibition of ACTH secretion (times the Standard) [9]: 53.6
Substance: (cyclo 30-33) D-Phe^12, Nle^21,38, CML^27, Glu^30, D-His^32, Lys^33 !-r/hCRF(12-41) (peptide)

in vitro biopotency: inhibition of ACTH secretion (times the Standard) [10]: 18
Substance: (cyclo 30-33) D-Phe^12, Nle^21,38, Glu^30, D-2Nal^32, Lys^33 !-r/hCRF(12-41) (peptide)

in vitro biopotency: inhibition of ACTH secretion (times the Standard) [11]: 60
Substance: (cyclo 30-33) D-Phe^12, Nle^21,38, Glu^30, D-Arg^32, Lys^33 !-r/hCRF(12-41) (peptide)

in vitro biopotency: inhibition of ACTH secretion (times the Standard) [18]: 40.3
Substance: (cyclo 30-33) D-Phe^12, Nle^21,38, Glu^30, Lys^33 !-r/hCRF(11-41) (peptide)

in vitro biopotency: inhibition of ACTH secretion (times the Standard) [19]: 33
intrinsic CRF activity [20]: < 3%
Substance: (cyclo 30-33) D-Phe^12, Nle^21,38, Glu^30, Lys^33 !-r/hCRF(12-41) (peptide)

in vitro biopotency: inhibition of ACTH secretion (times the Standard) [22]: 79
Substance: (cyclo 30-33) D-Tyr^12, Nle^21,38, Glu^30, Asn^32, Lys^33, Arg^36 !-r/hCRF (12-41) (peptide)
